Laboratory results from paper PMC9173642 (PLoS ONE, 2022).
Each block holds one binder with its values, some of them ahead of it.

B5: FLrArc-7A, full-length rat Arc with residues 113-119 mutated to Ala (natural protein, UniProt Q63053 1-396, looked up)
chain: MELDHMTTGGLHAYPAPRGGPAAKPNVILQIGKCRAEMLEHVRRTHRHLLTEVSKQVERELKGLHRSVGKLENNLDGYVPTGDSQRWKKSIKACLCRCQETIANLERWVKREAAAAAAAFYRLERWADRLESMGGKYPVGSEPARHTVSVGVGGPEPYCQEADGYDYTVSPYAITPPPAAGELPEQESVGAQQYQSWVPGEDGQPSPGVDTQIFEDPREFLSHLEEYLRQVGGSEEYWLSQIQNHMNGPAKKWWEFKQGSVKNWVEFKKEFLQYSEGTLSREAIQRELDLPQKQGEPLDQFLWRKRDLYQTLYVDAEEEEIIQYVVGTLQPKFKRFLRHPLPKTLEQLIQRGMEVQDGLEQAAEPSVTPLPTEDETEALTPALTSESVASDRTQPE
notes: Expressed from pHMGWA as His6-MBP fusion; Dimer by SAXS; also called poly-Ala rArc mutant; FLArc-7A; source: E. coli BL21(DE3)-RIPL, purified (details in S1 Protocol)

Columns and labels:
[1] = biological target: B5; assay: ITC; 2 mM Stg peptide injected into 198 μM FLrArc-7A; 20 mM Tris-HCl pH 7.4, 150 mM NaCl; 1:1 binding model; conditions: both partners purified
[2] = biological target: T1, human Arc C-terminal domain (hArc-CTD) (human, UniProt Q7LC44); assay: SEC-SAXS; hArc-CTD alone and with Nb, BM29 beamline (ESRF), HPLC mode; conditions: both partners purified
T1 construct: His tag with a linker holding a TEV site; kept in the pull-down; not shown: His6, N-terminal, kept

[3] = biological target: the molecule itself; assay: SEC-SAXS; FLrArc-7A alone and with Nb, SWING beamline, HPLC mode; 20 mM HEPES, 150 mM NaCl, 0.5 mM TCEP, pH 7.5 (rArc+H11 in 20 mM Tris, 150 mM NaCl, pH 7.4)
[4] = biological target: FLrArc-7A, full-length rat Arc with residues 113-119 mutated to Ala (rat, UniProt Q63053, 113-119 MHVWREV to poly-Ala)
[5] = biological target: rat Arc C-terminal domain as found in the crystals grown from FLrArc-7A (rArc-CTD) (rat, UniProt Q63053)
[6] = biological target: the molecule itself; assay: SEC; analytical SEC; 2 nmol FLhArc (capsid-containing) with 1.5-fold molar excess of Nb; Superdex 200 Increase 10/300 GL; PBS; fractions on SDS-PAGE
[7] = biological target: the molecule itself; assay: SEC-SAXS; MBP-2rNT alone, SWING beamline, HPLC mode

- Kd [1]: 34.9 µM
- dH [1]: -38.5 kJ/mol
- stoichiometry N [1]: 1.09
B1: stargazin (Stg) peptide (peptide)
peptide: Ac-RIPSYRYR-NH2
notes: peptide from the cytosolic tail of stargazin (Stg), auxiliary subunit of AMPA receptors

- stoichiometry N [2]: 1
B2: NbArc-B12 (VHH)
VHH: EVQLLESGGGLVQAGGSLRLSCVASRGPFTTVTMGWYRQTPGKQRESVAHITSDGRANYADSVKGRFTISKDNATNTVYLQMNNLKREDTAVYYCNTIVWPRGPWGQGTQVTVSS
notes: From NanoTag Technologies, His6-TEV-Nb in pNT1433; also called sdAb B12; source: E. coli BL21(DE3), purified (NiNTA, TEV proteolysis, SEC); not shown: His6, N-terminal, cleaved

- stoichiometry N [2]: 1
B3: NbArc-H11 (VHH)
VHH: EVQLLESGGGLVQAGDSLRLSCAASGRTFSAYAMGWFRQAPGKEREFVAAISWSGNSTYYADSVKGRFTISRDNAKNTVYLQMNSLKPEDTAIYYCAARKPMYRVDISKGQNYDYWGQGTQVTVSS
notes: From NanoTag Technologies, His6-TEV-Nb in pNT1433; long CDR3 with a P-x-Y motif (Pro103, Tyr105); also called Nb H11; sdAb H11; source: E. coli BL21(DE3), purified (NiNTA, TEV proteolysis, SEC); not shown: His6, N-terminal, cleaved

- binding result [4]: binds
B6: E5 [NbArc-E5] (VHH)
VHH: EVQLQESGGGLVQAGGSLRLSCAASGSIFSGNAMGWYRQAPGKQREVVAVISAGNSSNYVDSVKGRFTISRDNAKNTVYLQMNSLKPEDTAVYYCNVVKRGPQWGMEWGKGTLVTVSS

- binding result [5]: binds
B8: C11 [NbArc-C11] (VHH)
VHH: EVQLVESGGGLVQAGGSLRLSCAASGRTSGALNVAWYRQATGKEREYVARLWWNDGTTYYSDSVKGRFTISSDNAKKIVYLQMNRLKPDDTAIYYCAVRTPSSQTLYWGQGTQVTVSS

- stoichiometry N [2]: 1
B9: NbArc-C11 (VHH)
VHH: EVQLVESGGGLVQAGGSLRLSCAASGRTSGALNVAWYRQATGKEREYVARLWWNDGTTYYSDSVKGRFTISSDNAKKIVYLQMNRLKPDDTAIYYCAVRTPSSQTLYWGQGTQVTVSS
notes: From NanoTag Technologies, His6-TEV-Nb in pNT1433; also called Nb C11; sdAb C11; source: E. coli BL21(DE3), purified (NiNTA, TEV proteolysis, SEC); not shown: His6, N-terminal, cleaved

- stoichiometry N [2]: 1
B12: NbArc-B5 (VHH)
VHH: EVQLQESGGGLVEAGGSLRLSCAASGHTSSTVNMAWYRQAPGKEREWVARVFWTDGATYYSDSVKGRFTISRDNTKQRVNLQMNNLKPEDTAIYYCALRAPSSQRLYWGQGTQVTVSS
notes: From NanoTag Technologies, His6-TEV-Nb in pNT1433; also called sdAb B5; source: E. coli BL21(DE3), purified (NiNTA, TEV proteolysis, SEC); not shown: His6, N-terminal, cleaved

Continued, binder first:

B4: NbArc-D4 (VHH)
VHH: EVQLVESGGGLVQAGGSLRLSCVASRGPFTTVTMGWYRQTPGRGRELVATINGGGGTRYADSVKGRFTISTDNAKNTVSLQMNSLKPEDTAVYYCNNDGYEWGVKKTYWGQGTQVTVSS
notes: From NanoTag Technologies, His6-TEV-Nb in pNT1433; also called sdAb D4; source: E. coli BL21(DE3), purified (NiNTA, TEV proteolysis, SEC); not shown: His6, N-terminal, cleaved
- stoichiometry N [2]: 1

Binder: B5
- stoichiometry N [3]: 2

B7: NbArc-E5 (VHH)
VHH: EVQLQESGGGLVQAGGSLRLSCAASGSIFSGNAMGWYRQAPGKQREVVAVISAGNSSNYVDSVKGRFTISRDNAKNTVYLQMNSLKPEDTAVYYCNVVKRGPQWGMEWGKGTLVTVSS
notes: From NanoTag Technologies, His6-TEV-Nb in pNT1433; also called Nb E5; sdAb E5; source: E. coli BL21(DE3), purified (NiNTA, TEV proteolysis, SEC); not shown: His6, N-terminal, cleaved
- stoichiometry N [2]: 1

B10: full-length human Arc (FLhArc), capsid-containing preparation (natural protein, UniProt Q7LC44 1-396, looked up)
chain: MELDHRTSGGLHAYPGPRGGQVAKPNVILQIGKCRAEMLEHVRRTHRHLLAEVSKQVERELKGLHRSVGKLESNLDGYVPTSDSQRWKKSIKACLCRCQETIANLERWVKREMHVWREVFYRLERWADRLESTGGKYPVGSESARHTVSVGVGGPESYCHEADGYDYTVSPYAITPPPAAGELPGQEPAEAQQYQPWVPGEDGQPSPGVDTQIFEDPREFLSHLEEYLRQVGGSEEYWLSQIQNHMNGPAKKWWEFKQGSVKNWVEFKKEFLQYSEGTLSREAIQRELDLPQKQGEPLDQFLWRKRDLYQTLYVDADEEEIIQYVVGTLQPKLKRFLRHPLPKTLEQLIQRGMEVQDDLEQAAEPAGPHLPVEDEAETLTPAPNSESVASDRTQPE
notes: Activity-regulated cytoskeleton-associated protein (Arc), human, full length, without any mutations; High-molecular-weight forms and capsids with nucleic acid content (260/280 ratio >1); also called capsid hArc; wild-type full length hArc; source: E. coli BL21 CodonPlus, purified (NiNTA, TEV cleavage, Talon)
- binding result [6]: binds

B11: MBP-2rNT, N-terminal domain of rat Arc (residues 24-137) with the poly-Ala mutation, fused to His6-MBP (domain or fragment, UniProt Q63053 24-137, looked up)
chain: KPNVILQIGKCRAEMLEHVRRTHRHLLTEVSKQVERELKGLHRSVGKLENNLDGYVPTGDSQRWKKSIKACLCRCQETIANLERWVKREAAAAAAAFYRLERWADRLESMGGKY
notes: Insoluble without the MBP fusion partner; dimer by SAXS; also called NTD; rArc-NTD; source: E. coli BL21(DE3)-RIPL, purified (details in S1 Protocol); not shown: His6, N-terminal, kept; MBP, N-terminal, kept
- stoichiometry N [7]: 2
